From article doi:10.1101/2023.07.20.549950

T1: RBM15 RRM123 (UniProt Q96T37 170-529)
T1 sequence: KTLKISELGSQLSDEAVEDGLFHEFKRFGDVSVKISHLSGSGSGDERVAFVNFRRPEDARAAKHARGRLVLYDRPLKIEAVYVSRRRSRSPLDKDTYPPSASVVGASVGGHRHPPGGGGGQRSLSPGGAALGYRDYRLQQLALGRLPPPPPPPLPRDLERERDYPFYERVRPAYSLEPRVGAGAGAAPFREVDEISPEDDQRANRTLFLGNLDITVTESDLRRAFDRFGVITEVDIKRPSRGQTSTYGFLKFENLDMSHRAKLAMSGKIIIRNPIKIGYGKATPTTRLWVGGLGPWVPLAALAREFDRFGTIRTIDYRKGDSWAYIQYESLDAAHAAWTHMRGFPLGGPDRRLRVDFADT

T2: RBM15 RRM3 (UniProt Q96T37 455-529)
T2 sequence: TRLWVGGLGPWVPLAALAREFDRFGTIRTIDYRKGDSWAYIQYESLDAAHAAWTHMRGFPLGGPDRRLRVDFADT

T3: RBM15 RRM12 (UniProt Q96T37 170-451)
T3 sequence: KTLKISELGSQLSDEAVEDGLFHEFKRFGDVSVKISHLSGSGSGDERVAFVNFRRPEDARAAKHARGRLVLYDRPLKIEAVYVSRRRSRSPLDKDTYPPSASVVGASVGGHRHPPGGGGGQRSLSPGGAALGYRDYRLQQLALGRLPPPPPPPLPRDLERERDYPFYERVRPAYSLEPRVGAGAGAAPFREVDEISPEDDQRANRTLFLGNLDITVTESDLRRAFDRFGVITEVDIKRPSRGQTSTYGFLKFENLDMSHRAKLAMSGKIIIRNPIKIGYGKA

T4: RBM15 RRM23 (UniProt Q96T37 374-529)
T4 sequence: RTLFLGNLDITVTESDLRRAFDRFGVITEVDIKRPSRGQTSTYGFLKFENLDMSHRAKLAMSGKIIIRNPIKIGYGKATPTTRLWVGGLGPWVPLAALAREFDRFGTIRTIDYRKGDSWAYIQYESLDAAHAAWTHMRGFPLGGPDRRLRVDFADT

T5: RBM15 RRM1 (UniProt Q96T37 170-252)
T5 sequence: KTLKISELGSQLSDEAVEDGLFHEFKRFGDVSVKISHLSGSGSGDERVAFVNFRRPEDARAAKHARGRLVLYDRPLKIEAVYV


Columns and labels:
Experiment in all cases: filter binding
[1] = target: T1, RBM15 RRM123
[2] = target: T2, RBM15 RRM3
[3] = target: T3, RBM15 RRM12
[4] = target: T4, RBM15 RRM23
[5] = target: T5, RBM15 RRM1

| Binder | Kd [1] | Kd [2] | Kd [3] | Kd [4] | Kd [5] |
| --- | --- | --- | --- | --- | --- |
| GGCCAACACUCUGGCCCAUCGGGGUGACGGCC (structured_RNA) [XIST A-repeat stem-loop (32nt)] | 79 nM | ~100 nM | 71 nM | 50 nM | 433 nM |
| GGUUCUUGAAAAGAGGACC (structured_RNA) [FIRRE RRD stem-loop (19nt)] | ~100 nM | ~100 nM | 184 nM | 99 nM | 370 nM |
